The domain aggregation screens of Martell et al. (2025)

Assay: soluble fraction after stress (log2 fold change); higher = more stays soluble; pooled small domains, quantitative proteomics
Conditions: stress: pH 4
Method in brief: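 Values are on a log2 scale, where higher means more of the domain stayed soluble after pH 4 stress. They are fold changes in the soluble amount of each domain from pooled custom libraries, measured by high-throughput quantitative proteomics. The fold change is taken to reflect aggregation propensity.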

Sequence | soluble fraction (log2)
HMEEVIEVEGKITAVLPSTMFRAELENGHQVLAHISGKLRKHFIKITVGDIVKMEMSTQDLQKARIV | -0.831
HMAMDITLPLAEVRRQSLEQIERQYLNELMSKHLGRINRAAEAAGITTRQLHKLLTKYSIRKEDFK | 0.0354
HMVSNFEAEFGRHFAIFFPGSEFTELKLRLLEEGAELIDPIRDTPFERFFFKDPNGYIFEVIDKE | -2.33
HMKEIPTKKGDMLEIYEANGKYILKYPTFNITMPEVVKEIPKEAVDSYLAGKHDGEELINYANFGFWKS | 0.315
HMNKVQTFIIEKHIKEVFEHTNRTYYRSGQYYFQTRDEFSMALKRFLKDREPNKKNWIDSIINRA | 0.195
HMGSTDTLEDALEAAEKISYPVIIKATAGGGGRGMKVASSLEELKKVYHTTKLEAKNAFGNDQVYIEKYL | -0.0649
HMSEYNPGIYRVTDPALNIRTGPGVEYPVVGVIKDQGSYTITEIRNKSWGRLLSGAGSTAIKHIVFT | -0.173
HMPDLSGEEQQIVDILAQRGNLQINTLVVETDIPVHKMNAILFELEMKGVVRVLAGGMYQLL | -0.561
HMNIYIEFGRRLAFIRQNSKLSQSQIAQKLNIAQSTYAGYEKGVRKIPLEIIVQLSKILNISPTILILG | -0.618
HMPQLSNEEQKIVDALEGSDGKQINLITVETNIPMARLMSVLFEMEMRGIVKSLNGARYKLN | -0.026
HMGLLGIYPNPVEGGSVRLLSDADLFGSRFELYDQSGKLVLNGFVTEGNFVSVKGISSGLYISVSYT | 0.00514
HMRSNQKVSQIAISQVLPGMVTAKNVYSRNDQLILNRETTLDSTKIAKIMFYAIESIYVYEPE | -0.6
HMQELGVISEGKYNIELNMVSWNDREPKYDIRSWAPDHSRMGKGISLTEEEMERLVELWNTRNE | -0.802
HMNKKETRLNNFIHFLKIRNSITVKEMANHLNVSEMTVRRDIKELTADHTINFENGKIMFNPQSSL | 0.33
HMVDKTMYDRYAVDDYVRVIDGPLVGTEGRIIELDRETGNVKIEAVFFGRVTTADINFALIEKVD | -1.33
HMEEDGAPLESREVLLDQAISQGKGTQWTIATETKLEDHIVSGAYSTDGKVTLAVFSPLGDGKYEFSSSVN | -0.172
HMSSPPNPQLAKRYISYSVDDIARLFGIHRHTVREWIKRGLPVIDQQRPLLVQGADLAEFLRKRRA | 0.162
HMLEPGIAVLKTLMSQYRLGVADLPELGSKSNVSKLLNAVEGKKLTRQHIEALSKRFAVSPALF | 0.114
HMASRTLSYSEFMSRVDSGDVTSVTLDGERIIMRTSNNQEFLSIKPEGEDISERLLAKNIEVRAEAQQ | -1.58
HMAPREELIAIHEALDKLEREDPQVSQLVKLRYFVGMTMAEAADAMDLKKRAAEALWTYGKAWLHREIKKN | -0.576
HMREIDIWVAEDADSQRIDKYLSMVVEDLSRSRIASLIEGGSILVNGEVIRAKYKVKPADHITAAFEDEM | -0.938
HMGNTMIVILKHEARQEQIDRLKQFLLGMGLRIDESKGENSTILGLVGDTTRVDADLISSLDAVEAVRRV | -0.626
HMEVTYQETLRVLYNAIDKLPPQTKEIILIGLDGKDNNEIAATLNISVNTVKTLKKNAYKTLRELLVD | -0.601
HMLQEHVLEIRHPSWNDAFRIIGHDGWRTQTGAHAAILSYDEEELNIKWDSWGYERFIRDEKGIFRLAA | -0.165
HMLELLSMEDIQRTRVGDLIATVRQVDRQHALVLDRDPETGKPAVRGIFSLSQISLRLGLNI | -0.733
HMRINIVKSKNAEQLYIIHSYRINGKNTSKIYKKLGTMADLLPLHNHDRDQVLAWAKEQARLATEQYDQEN | 0.26

Sequence | soluble fraction (log2)
HMVNAVKFAIEKMPYKYSSLLTLKYVMGYSGKEIAEITGLSETNVRQQLLKGRKLLESMLEE | -0.105
HMGQTYTITINPTPADAKVIIDGVATNSVEAIDGRTLIWSVSKPGYLTKSGNYTVTGKNETLNIVLKEDPD | -0.283
HMFNRAVSDNEALQVREHFDRDATVMSLAKKYGVSTVTIQRILLGKTYRNVGGPLFDKATLKKRMGN | 0.13
HMQQLTDRELEVLRLLAAGLSNNKIGEKLYISATTAKFHVSNIMRKLEVSRRAEAVYAASKRGL | -0.587
HMTTTTTYITNTDAVNIRQQATTSSTSLGKLAKNTILSVKKKSGDWYQITYKKQTAYIHASLVDKKTAKVT | ≥ 0.43
HMGFLTGNTQGEVNRKTKNQMVNIFLPTTPNPTSGFLLFVPKKDILRLTMTVEEGIKMIISAGMLTPS | 0.0322
HMNAQLTTIPDLDGMNMRAATAMLSSLGLEVKRIGSGTVFAQFPKAGAAMRPGSMVTIRGKAKSL | 0.22
HMPLSLESVSEGGRNDTAARIAGYLIAKGLNVDFARFFLQSWNTKNKPPLDDTEIDTIVNSIMKTHERKNQ | -0.476
HMTPAIEKTAVIVFINGKKYYVHTVKSGETLYSIAKAYKVDEKVIKEHNPNVADGLRIDQTVKIPVPEQVK | -0.0592
HMDVLKMKVEDLNIGSRTVNSLTAAKIKTVAGLIKKSKESLLELDGMGNKGVEEIILALKKLGLEL | 0.345
HMPPTEQVYRSHVPPQYDGFPIEKYFTTRFSYQDVEEWSRQILAGKIEVNGKTALIGQILSASDLTVTRA | -0.811
HMWQVVEVDYGTFMSMTEDGQVGRVEIQEQENLILFTDQEETTVYKTAMVDDPDLTARLHDAGIPFYGQE | -2.29
HMPDDHFIRGYVTAVLEQVLKVPSIQVEVERGVVILRGDLPGEERQELLDAVSRIHGVARVEYIPL | -0.281
HMVNLKQVELREHHPWVGHKIKELDISRHTLIVMIRRGDNAIVPNGDTLIKSGDIVFVFSKR | -0.839
HMSTLTGTQRAAVVLMQMSPPNAARVMAQFTDAEAEEIAAEIVRLRKVDPEVAEQIMKDFHEAALSS | -0.645
HMIQSEQIPFSKFLKEVDSGRVVQVEIQGNNINGVLSDGSKFKTYSPNYPELVGKLSDKGVSIVASPV | 0.0829
HMYAEVTITIEKGMTSDSVSKLLYKAGIVDDAKEFNNYIIKAGKSTKILIGEFTIQKGASYDDIIKIIA | -0.133
HMPSREDFAYDSIKEAILSGELLPNQKISLSDLANKLGISIIPVNSAVGRLVAEGLVRQDPHHSPYVV | -0.31
HMSQTPDLQQERANLGDNADARIEAVDLWANKFFPEEHADAILQIGQTAKGIEALEFIMSKV | -0.345
HMGQQTVEPLSRRELEVLSLLAKGLSNQQIADRLVISVRTVKKHVENIHGKLGVQSRTQAVARARELGLV | -0.688
HMQQELEEMESGNLVRTAIDSLPINQRTAFILSAYEELPIKEIASIMNRSEGAVEQLLQRAKMNLKKKIK | -0.0659
HMEINKLIELIGGYKALSEVLNVSKSAISNYKKRGSLPSYAIPIIVKELKSKGISIDLSEFT | -0.0727
HMAAGLTPKQKAFADNYIKNGGNAAEAARAAGYSLKNVGANAGKLLKNPKIAAYIAEKQAELDRRNGT | -0.13
HMGYPYDTVTTAKVNLRAKRSTSSDILKKIPEGATVTVKGVTGTFASVDYNGTSGYVKVDYLV | -0.196
HMWNGIVDAGKARQHLMNLSQLGVGRRAVAAASDVAETVLMDIRSGTKTRIRARTERQILAVTPEMA | 0.22
HMALEVPGIAKDKIYRIFGQLYERQQKWEDAIDYYNRAVFFTLSGTDMILYQEDLSRVKQKISL | -0.152

Sequence | soluble fraction (log2)
HMDIVGAINKIESMKQDRYLAMHPYSITHSADGYYRTYLPADDGKRKQIKKKSKSDLEKVVIDYWTKRS | ≥ 0.43
HMVDWTFPVLVKDVVMMGRYGHMGFLRIPGKKDFESVDNALAKVGMVEYAKQQIGELSGGQR | -0.0255
HMQKEIKVPDVANMALSEAVEKLQNEGFKVADEQKEVSSDEIEEGKVVKTSPVAGTKKTKGSEITIYISSG | 0.22
HMFDDEELDRFAGVPADAYLPADEDEFREVFYTMRPGEVVEWVRSLELRHIEIPNGIKDEIFMMIR | -3.37
HMNQILDFTREVKNLPEQDKIKIVEALWSIIYSNKDADIYETNLMRRLAGLLYIDNKTMGDIKEKIKQNL | -0.421
HMEEEEITIHIIGEVKYPGIVILKTGQRIIDAIDAAGGETEEADLNKINLAQLLSDGDKIYVPSINDN | -1.05
HMKPTGWVRGDMGVVDKGQLSITQGTVNVRSGPGLSYEILDQVRRGDRFPVIKSQSGWHNISM | 0.361
HMTISIAEQIFEQLEREILSGAYPRGELLTETKLSEKLGVSRTPIREALRRLDQEHIIKMTTKGAFVLGI | 0.198
HMPASVSAIRKYLGGGSFKGVGPALAKRIVDAFGEYTIETIENDPKQLAKVKGVSEKMALEINTQ | 0.112
HMDDVIDVYATYDKSAEGVLSNIQLFSNQKKTTPITPESGKIYIDVEGNYQFRWTGTQYATV | -0.09
HMHSILDDIPTVGPARRKALMRRYESLEAIRQATVDELKELPEINEASAEAIVSFFAGQAKEG | -1.13
HMGSEISLNAFNIPKGSVSVTAGGTKLVENQDYTVDYTLGRIKILNEGILNSGVPIQVNFENNTLFN | -0.087
HMDSFEEGTYRKNQRGFGFVKIENQEDEIFISKENSLNALNGDRVIVEIIEDKDRTKRAEGKIKKILKHE | -0.086
HMTLALKQGSTGSTVKQVQQKLKNWGYYSGAVDGIFGSGTRKAVVLFQKRNKLTADGIVGSKTLEALGIYV | 0.0782
HMSKEGLASLLEDINGLGAIRRKTLIDHFGSVAKIRGARPEEIAALPGMGRKIAEHILASLRED | 0.418
HMSLGSQEYSIGFRNGDSTYHYIDKALKELAYEGVIDELSTQWFGSSRAVDFPSQKDALSELGYIA | 0.22
HMKIKAKYTTDFGIRIYAPKPGKNYWRISYVDLDGKLRDTTATSEKTALDKSAEIEVLLRNN | -0.232
HMVKDYIQVTVNKEPVILKGKKDYIFIDIFNYIEFDLTIPKGSLYLLLNGKNAGYHDKLLDGDVIELGW | -1.63
HMGPGFVGGSVLSGGNRGEGDPVANAQVFITDMDDNVVAFTKTDAEGNFDMTNLAYGDYKMYVDILNK | -0.741
HMETDNEKVRTAFQNGLAAYREQDWDRAEAAFGAVLAEMPEDRPSLVYLERIAHLRKKAPPGAWDGVWI | -1.07
HMGKPPNNRIHRAKRDYALNLVKEHYPDFGPTLAAEKLAEHHGFTVSRETLRKWMIEDGIWLSRKQRR | -0.0217
HMDSADADLLRRIEDLLSSRRSVIREARLADMLGVPRDQVARALDLLQERGVIGLTTDSGMKRIAFRRN | 0.111
HMRDPFDALSARERAVASLVQRGLRNKEVASELGLTEGTVKVHLHKVFDKLGIRGRTELILLAQER | -0.397
HMLSFSEAERAVLSLLNRRPDLSAKALASELAVSARTVERYLQSLQQKGKLLRVGAKKGGYWQV | 0.115
